Consider eight molecules from US20090041783A1 (MOCHIDA PHARMACEUTICAL, published 2009).

Test [1] has as its target T1, human GPVI extracellular region-human Fc fusion protein (hGPVI-hFc) (human).
T1 construct: Expressed in COS-1, purified on Protein A; also called GPVI-HHH-hFc; hGPVIHHH-hFc
The test is described as follows: ELISA of hybridoma culture supernatant on coated hGPVI-hFc (selection criterion). How it is done:
Next, culture supernatant was added to each well and incubated at 37° C. for one hour. After incubation, the well was washed three times with the saline containing 0.05% Tween20. Peroxidase-labeled anti-mouse immunoglobulin antibody (DAKO, P260) was 1000-fold diluted with D-PBS containing 10% rabbit serum and added to each well at 50 μL. After incubation at 37° C. for one hour, washing in a similar manner was performed and TMB solution (BioFix) was added to each well. After ten minutes at room temperature, the reaction was terminated with 0.5 M sulfuric acid solution. Subsequently, absorbance at 450 nm was measured with the plate spectrophotometer (Multiscan JX, Dainippon Pharmaceutical). As a result, the cell whose culture supernatant reacted to hGPVI-hFc was selected and a cloning with limiting dilution method (“The Introduction to Monoclonal Antibody Experimental Procedure” written by Tamie Andoh and Takeshi Chiba (Kodansha, p 83)) was performed. Eight days later, screening was done in a similar manner and the antibody which reacts to hGPVI-hFc was selected.
After one week, hybridoma, which produces a desired antibody was screened using the binding property to hGPVI-hFc and hGPVI-mL9-hFc prepared in EXAMPLE 7 as an index. That is, the purified hGPVI-hFc or hGPVI-mL9-hFc, which was prepared in EXAMPLE 1, was diluted with D-PBS (pH7.4) to 1 μg/mL. And 50 μL/well of the solution was added to make hGPVI-hFc or hGPVI-mL9-hFc-coated plate using the same method as that of EXAMPLE 2. Next, a culture supernatant was added to each well, and after incubation at room temperature for one hour, by the same method as that of EXAMPLE 2, using peroxidase-labeled anti-mouse immunoglobulin antibody (DAKO, P260) a reaction was performed to measure an absorbance. As a result, the cell producing an antibody that binds to the purified hGPVI-hFc (absorbance: equal to or more than one), but not hGPVI-mL9-hFc (abdorbance: equal to or less than 0.5) was selected and cloned by the method described in EXAMPLE 2. Eight through ten days later, a screening was done as with the similar way to obtain a hybridoma producing an L9-specific mouse anti-human GPVI antibody. As with EXAMPLE 2B (3), the obtained hybridoma was cultured and a monoclonal antibody was purified. The sub-type of each antibody was determined using IsoStrip Mouse Monoclonal antibody Isotyping Kit (Roche).
For orientation: In an ELISA, binding on a coated surface is turned into a signal by an enzyme label.

In test [2] the target is T1, human GPVI extracellular region-human …. Put plainly: competition ELISA on hGPVI-hFc plate; competitor: peroxidase-labelled F1232-37-2; +++ more than 50%, ++ 30-50%, + 10-30% inhibition. How it is done: (§1) To analyze a property for each antibody obtained in EXAMPLE 13, binding to human GPVI-hFc, competition with F1232-37-2 described in EXAMPLE 4 and specificity for L9 loop were investigated. That is, as for the binding to human GPVI, according to the method of EXAMPLE 2, a binding activity to immobilized antigen was measured. For the binding activity, the range of absorbance from 0.5 to 1.0 is represented by “+”, from 1.0 to 2.0 by “++”, the range more than 2.0 by “+++”. The competitive test with F1232-37-2 was performed as follows. That is, according to the method by Nakane et al. (J. Histochem. Cytochem., 22, 1084, 1974), peroxidase (TOYOBO)-labeled F1232-37-2 antibody was prepared and an antibody concentration was calculated from the amount of the antibody used.
Next, by using the peroxidase-labeled antibody, the competitive test for a variety of purified antibody was performed. That is, 25 μL of the above labeled antibody and 25 μL of each purified antibody were added to well of hGP-hFc-immobilized plate. After incubation at 37° C. for one hour, the well was washed five times with the saline containing 0.05% Tween20, and the reaction mixture was developed with TMB solution (BioFix). After incubation at room temperature for 10 minutes, the reaction was terminated with 0.5 M sulfuric acid solution and an absorbance at 450 nm was measured with the plate spectrophotometer (Multi-Scan JX, Dainippon Pharmaceutical).

For test [3] the target is unchanged. Put plainly: ELISA on immobilised hGPVI-hFc; + A450 0.5-1.0, ++ 1.0-2.0, +++ more than 2.0. How it is done: The hGPVI-hFc prepared by EXAMPLE 1B was diluted with D-PBS to 2 μg/mL and added to immunoplate (Maxisorp NUNC) at 50 μL/well. After incubation at 37° C. for one hour, the well was washed five times with ion-exchanged water, and D-PBS (pH7.4) containing 2% StabilGuard (Surmodics) was added to each well in 100 μL for blocking. Next, culture supernatant was added to each well and incubated at 37° C. for one hour. After incubation, the well was washed three times with the saline containing 0.05% Tween20. Peroxidase-labeled anti-mouse immunoglobulin antibody (DAKO, P260) was 1000-fold diluted with D-PBS containing 10% rabbit serum and added to each well at 50 μL. After incubation at 37° C. for one hour, washing in a similar manner was performed and TMB solution (BioFix) was added to each well. After ten minutes at room temperature, the reaction was terminated with 0.5 M sulfuric acid solution. Subsequently, absorbance at 450 nm was measured with the plate spectrophotometer (Multiscan JX, Dainippon Pharmaceutical). As a result, the cell whose culture supernatant reacted to hGPVI-hFc was selected and a cloning with limiting dilution method (“The Introduction to Monoclonal Antibody Experimental Procedure” written by Tamie Andoh and Takeshi Chiba (Kodansha, p 83)) was performed. Eight days later, screening was done in a similar manner and the antibody which reacts to hGPVI-hFc was selected.
as §1

The target is the same in test [4]. The test is described as follows: ELISA, collagen on plate, hGPVI-hFc plus antibody; +++ more than 50%, ++ 30-50%, + 10-30% inhibition.
Test [5] has the same target. The test is described as follows: SPR (BIACORE3000), GPVI-Fc on CM5 chip, antibody 1.25-40 nM as analyte, bivalent analyte fit. The protocol:
(§2) Dissociation constant for the anti-GPVI monoclonal antibody prepared in EXAMPLE 2 was measured using protein interaction analyzer BIACORE3000 (BIACORE). That is, to sensor chip, CM5 chip (BIACORE), GPVI substitution mutant (hGPVIHHH-hFc and FFH-hFc) that is prepared in EXAMPLE 1 was linked according to the manual. Then each antibody was diluted with HBS-EP buffer solution (BIACORE) to prepare a series of diluted solution from 1.25 to 40 nM, and analyzed with BIACORE3000. Every each antibody bound chip, the chip was regenerated with glycine buffer solution at pH1.5. The obtained result was analyzed with Bivalent analyte, the evaluation software (BIACORE) to calculate dissociation constant. It was shown that each anti-GPVI monoclonal antibody has a sufficient affinity to GPVI-HHH-hFc.

For test [6], the target named is T2, cynomolgus monkey D1D2-human D3 chimeric GPVI-human Fc fusion protein (GPVI-FFH-hFc) (cynomolgus monkey (D1, D2) and human …).
T2 construct: also called Monkey GPVI
T2 sequence (chain, as listed by the source mutant limits assumed): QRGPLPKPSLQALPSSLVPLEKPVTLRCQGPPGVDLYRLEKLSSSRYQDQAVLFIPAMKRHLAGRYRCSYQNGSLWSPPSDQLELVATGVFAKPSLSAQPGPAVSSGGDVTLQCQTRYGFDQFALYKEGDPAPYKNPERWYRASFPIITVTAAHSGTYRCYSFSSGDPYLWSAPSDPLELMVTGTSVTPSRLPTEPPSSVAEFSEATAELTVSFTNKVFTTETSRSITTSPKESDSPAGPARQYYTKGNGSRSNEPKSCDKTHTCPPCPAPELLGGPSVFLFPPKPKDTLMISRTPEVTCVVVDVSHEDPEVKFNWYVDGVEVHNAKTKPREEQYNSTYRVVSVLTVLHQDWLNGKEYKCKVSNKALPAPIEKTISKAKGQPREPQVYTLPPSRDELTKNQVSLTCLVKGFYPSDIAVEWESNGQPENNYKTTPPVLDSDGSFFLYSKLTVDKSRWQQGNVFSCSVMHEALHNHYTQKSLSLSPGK
Described as above. How it is done: as §2

T1 sequence (chain, as listed by the source limits assumed): as the sequence (chain, as listed by the source mutant limits assumed) above, with R2S, H61S, P78L, G166R, M181V, S442P counted along it

B1: F1245-5-1 (antibody, V domains shown)
VH: QVQLQQPGAELVKPGASVKLSCKASGYTFISYWMHWVKQRPGQGLEWIGMIHPNSGSTHYNEKFKSKATLTVDKSSSTAYMQLSSLTSEDSAVYYCARGGVTPVAYWGQGTLVTVSA
VL: SIVMTQTPKFLLVSAGDRVTITCKASQSVSNDVAWYQQKPGQSPKLLIYYASNRYTGVPDRFTGSGYGTDFTFTISTVQAEDLAVYFCQQDYSSPWTFGGGTKLEIKR
As to B1, the absorbance in test [1] was at least 1 absorbance; in test [3], 1 to 2 od. Further, the percent inhibition is 30 to 50% in test [2] and 10 to 30% in test [4].

B2: F1245-6-2 (antibody, V domains shown)
VH: QVQLQQPGAELVKPGASVKLSCKASGYTFTSYWMHWVKQRPGQGLEWIGMIHPNSGSTNYNEKFKSKATLTVDKSSSTAYMQLSSLTSEDSAVYYCARGGVTPVAYWGQGTLVTVSA
VL: SIVMTQTPKFLLVSAGDRVTITCKASQSVSNDVAWYQQKPGQSPKLLIYYASNRYTGVPYRFTGSGYGTDFTFTISTVQAEDLAVYFCQQDYSSPWTFGGGTKLEIKR
With B2, the absorbance in test [1] was at least 1 absorbance; in test [3], 1 to 2 od. The percent inhibition was above 50% in test [2] and 10 to 30% in test [4].

B3: F1232-7-1 (antibody, V domains shown)
VH: VQLQQSGPELVRPGESVKISCKGSGYTFTDYAIHWVKLSHAKSLEWIGVISIYYDDTNYNQKFKGKATMTVDKSSSTAYMELARLTSEDSAIYYCARRRDSSGPYAMDYWGQGTSVTVSS
VL: DIVLTQSPASLAVSLGQRATISCRASESVDSYGNSFMHWYQQKPGQPPKLLIYRASNLESGIPARFSGSGSRTDFTLTINPVEADDVATYYCQQSNEDPYTFGGGTKLEIKR
notes: Mouse hybridoma monoclonal antibody; also called F1232-7-1 antibody
Regarding B3, the Kd in test [5] amounted to 34700 pM; in test [6] it was 343000 pM.

B4: F1201-18 (antibody, V domains shown)
VH: VQLVESGGGLVKPGGSLKLSCAASGFTFSSYAMSWVRQTPEKRLEWVAIISSGGSYTYYPDSVKGRFTISRDNAKNTLYLHMSSLRSEDTAMYYCARQGGGYFDYWGQGTTLTVSS
VL: DIVLTQSPASLAVSLGQRATISCRASESVDSYGNSFMHWYQQKPGQPPKLLIYRASNVESGIPARFSGSGSRTDFTLTINPVEADDVATYYCQQSNEDPPTFGAGTKLELKR
notes: Mouse hybridoma monoclonal antibody
In the case of B4, the Kd came out at 1160 pM in test [5] and 619 pM in test [6].

B5: F1232-18-3 (antibody, V domains shown)
VH: VMLVESGGGLVKPGGSLKLSCAASGFTFSSYAMSWVRQTPEKRLEWVATISSGGSYTYYPDSVKGRFTISRDNAKNTLYLQMSSLRSADTAMYYCARDYGYFDYWGQGTTLTVSS
VL: DIVLTQSPASLAVSLGQRATISCRASESVDNYGISFMHWYQQKPGQPPKLLFYRASNLESGIPARFSGSGSRTDFTLTINPVETDDVATYYCQQSNTDPRTFGGGTKLEIKR
notes: as for B4
In the case of B5, the values for the Kd in test [5] and in test [6] were 1650 pM and 365000 pM, respectively.

B6: F1249-24-1 (antibody, V domains shown)
VH: QVQLQQSGAELVRPGVSVKISCKGSGYTFTDYAMHWVKQSHAKSLEWIGVISTYYGDTSYNQKFKGKATMTVDKSSSTAYMELARLTSEDSAIYYCARAEDYDPWFAYWGQGTLVTVSA
VL: DIVLTQSPASLAVSLGQRATISCRASESVDSYGNSFMHWYQQKPGQPPKLLIYRASNLESGIPARFSGSGSRTDFTLTINPVEADDVATYYCQQSDEDPLTFGAGTKLELKR
Consider B6, for which the figures for the absorbance in test [1] and in test [3] were at least 1 absorbance and above 2 od, respectively. Also, the percent inhibition in test [2] is above 50%; in test [4] it was 10 to 30%.

B7: F1232-24-1 (antibody, V domains shown)
VH: VQLQQSGAELVRPGVSVKISCKGSGYTFTDYAMHWVKQSHAKSLEWIGVISTYYGDASYNQKFKGKATMTVDKSSSTAYMELARLTSEDSAIYYCARSYDYDPWFAYWGQGTLVTVSA
VL: DIVLTQSPASLAVSLGQRATISCRASESVDNYGISFMHWYQQKPGQPPKLLIYRASNLESGIPARFSGSGSRTDFTLTINPVETDDVATYYCQQSNKDPLTFGAGTKLELKR
notes: as for B4
Consider B7, for which the Kd in test [5] came to 250 pM; in test [6] it was 710 pM.

B8: F1232-17-1 (antibody, V domains shown)
VH: VQLVESGGDLVKPGGSLKLSCAASGFTFSSYGMSWVRQTPDKRLEWVATISSGGSYTYYPDNVKGRFTISRDNAKNTLYLQMSSLNSEDTAMYYCARQVYYFGSCDYWGQGTTLTVSS
VL: DIVLTQSPASLAVSLGQRATISCRASESVDNYGISFMHWYQQKPGQPPKLLIYRASNLESGIPARFSGSGSRTDFTLTINPVETDDVATYYCQQSNKDPWTFGGGTKLEIKR
notes: as for B4
As to B8, the Kd in test [5] turned out to be 522 pM; in test [6], 177 pM.
